Values quoted from earlier work in paper PMC4411102 (PLoS ONE, 2015).

B1: secretory leucocyte protease inhibitor (SLPI): natural antimicrobial peptide (protein, UniProt P03973 26-132, looked up)
Antileukoproteinase: SGKSFKAGVCPPKKSAQCLRYKKPECQSDWQCPGKKRCCPDTCGIKCLDPVDTPNPTRRKPGKCPVTYGQCLMLNPPNFCEMDGQCKRDLKCCMGMCGKSCVSPVKA
B2: human defensin-5: antimicrobial peptide (peptide, UniProt Q01523 20-94, looked up)
Defensin alpha 5: ESLQERADEATTQKQSGEDNQDLAISFAGNGLSALRTSGSQARATCYCRTGRCATRESLSGVCEISGRLYRLCCR
modifications: Defensin-5
notes: antimicrobial peptide

Test system: HIV
Text: HIV-1 infection can be targeted at various stages, for example, viral entry, viral replication or assembly of viral components. HIV entry into the host cells is facilitated by binding of viral envelope glycoprotein (gp120) to host CD4 receptor [3, 4]. CD4-gp120 interaction initiates a cascade of events that stimulates gp41 to promote viral and host membrane fusion. Inhibition of gp120-CD4 interaction or virus-host cell fusion thus appears to be an attractive strategy to prevent HIV-1 infection. Towards this, significant advances have been made. […] Moreover, some of the AMPs cause adverse effects on vaginal commensals like lactobacilli which are required to maintain low pH in vaginal mucosa.

| Molecule | Anti-HIV activity | Effect on HIV infection |
| --- | --- | --- |
| B1 | reported to have anti-HIV activity |  |
| B2 |  | exacerbate HIV infection |
